Measurements from US7186459B2, “Liposome coated with polyhydroxyalkanoate and production method thereof” (priority 2001, dated 2007).

Test system: PHA synthesizing enzyme
Test: Activity of purified PHA synthesizing enzyme (released CoA coloured with 5,5'-dithiobis-(2-nitrobenzoic acid), absorbance at 412 nm)
Assay type: biochemical, Pseudomonas cichorii YN2
Settings: for Activity: 1 U = amount of enzyme releasing 1 μmol CoA per minute, substrate 3-hydroxyoctanoyl CoA, 30° C.; for Specific Activity: protein by Micro BCA
Excerpt: A various kinds of reported methods may be used for measuring activity of the PHA synthesizing enzyme, and for example, the activity may be measured by the following method in which as a measurement principle, CoA released in the process through which 3-hydroxyacyl CoA is polymerized under the catalytic action of the PHA synthesizing enzyme to form PHA is colored with 5,5′-dithiobis-(2-nitrobenzoic acid) to carry out measurements. Reagent 1: bovine serum albumin (manufactured by Sigma Co., Ltd.) is dissolved in a 0.1 M Tris hydrochloric buffer (pH 8.0) in the concentration of 3.0 mg/ml, Reagent 2: 3-hydroxyoctanoyl CoA is dissolved in a 0.1 M Tris hydrochloric buffer (pH 8.0) in the concentration of 3.0 mM, Reagent 3: trichloroacetic acid is dissolved in a 0.1 M Tris hydrochloric buffer (pH 8.0) in the concentration of 10 mg/ml, and Reagent 4: 5,5′-dithiobis-(2-nitrobenzoic acid) is dissolved in a 0.1 M Tris hydrochloric buffer (pH 8.0) in the concentration of 2.0 mM. First reaction (PHA synthesis reaction): 100 μl of Reagent 1 is added in 100 μl of sample (enzyme) solution and mixed together, and is pre-incubated at 30° C. for a minute. 100 μl of Reagent 2 is added thereto and mixed together, and is incubated at 30° C. for 1 to 30 minutes, followed by adding thereto Reagent 3 to stop the reaction. Second reaction (reaction of coloring free CoA): the first reaction solution of which reaction has been stopped is subjected to centrifugation (15,000×g, 10 minutes), and 500 μl of Reagent 4 is added in 500 μl of supernatant liquid of this solution, and is incubated at 30° C. for 10 minutes, followed by measuring an absorbance at 412 nm. Calculation of enzyme activity: the amount of enzyme for releasing 1 μmol of CoA per minute is defined as one unit (U).
The activity of each purified enzyme was measured by the aforesaid method. Also, the concentrations of proteins in the sample were measured by the Micro BCA protein quantification reagent kit (Pierce Chemical Co., Ltd.).

Molecule	Activity [U/mL]	Specific Activity [U/mg Protein]
YN2-C1: Purified PHA synthase derived from Pseudomonas cichorii YN2, from plasmid pYN2-C1 (SEQ ID NO: 2), 60.8 kDa (protein, Pseudomonas cichorii YN2 ; FERM BP-7375) MSNKSNDELKYQASENTLGLNPVVGLRGKDLLASARMVLRQAIKQPVHSVKHVAHFGLELKNVLLGKSGLQPTSDDRRFADPAWSQNPLYKRYLQTYLAWRKELHDWIDESNLAPKDVARGHFVINLMTEAMAPTNTAANPAAVKRFFETGGKSLLDGLSHLAKDLVHNGGMPSQVNMGAFEVGKSLGVTEGAVVFRNDVLELIQYKPTTEQVYERPLLVVPPQINKFYVFDLSPDKSLARFCLRNNVQTFIVSWRNPTKEQREWGLSTYIEALKEAVDVVTAITGSKDVNMLGACSGGITCTALLGHYAAIGENKVNALTLLVSVLDTTLDSDVALFVNEQTLEAAKRHSYQAGVLEGRDMAKVFAWMRPNDLIWNYWVNNYLLGNEPPVFDILFWNNDTTRLPAAFHGDLIELFKNNPLIRPNALEVCGTPIDLKQVTADIFSLAGTNDHITPWKSCYKSAQLFGGNVEFVLSSSGHIQSILNPPGNPKSRYMTSTEVAENADEWQANATKHTDSWWLHWQAWQAQRSGELKKSPTKLGSKAYPAGEAAPGTYVHER	2.1	4.1
YN2-C2: Purified PHA synthase derived from Pseudomonas cichorii YN2, from plasmid pYN2-C2 (SEQ ID NO: 4), 61.5 kDa (protein, Pseudomonas cichorii YN2 ; FERM BP-7375) MRDKPARESLPTPAKFINAQSAITGLRGRDLVSTLRSVAAHGLRHPVHTARHALKLGGQLGRVLLGDTLHPTNPQDRRFDDPAWSLNPFYRRSLQAYLSWQKQVKSWIDESNMSPDDRARAHFAFALLNDAVSPSNSLLNPLAIKEIFNSGGNSLVRGIGHLVDDLLHNDGLPRQVTRHAFEVGKTVATTTGAVVFRNELLELIQYKPMSEKQYSKPLLVVPPQINKYYIFDLSPHNSFVQFALKNGLQTFVISWRNPDVRHREWGLSTYVEAVEEAMNVCRAITGAREVNLMGACAGGLTIAALQGHLQAKRQLRRVSSATYLVSLLDSQLDSPATLFADEQTLEAAKRRSYQKGVLEGRDMAKVFAWMRPNDLIWSYFVNNYLMGKEPPAFDILYWNNDNTRLPAALHGDLLDFFKHNPLSHPGGLEVCGTPIDLQKVTVDSFSVAGINDHITPWDAVYRSTLLLGGERRFVLANSGHVQSILNPPNNPKANYLEGAKLSSDPRAWYYDAKPVDGSWWTQWLGWIQERSGAQKETHMALGNQNYPPMEAAPGTYVRVR	1.5	3.6
